These results are taken from publication PMC10821591, “Toxoplasma gondii mitochondrial association factor 1b interactome reveals novel binding partners including Ral GTPase accelerating protein α1” (The Journal of Biological Chemistry, 2023).

The target in this assay is T1, T. gondii MAF1b (residues 173-443), co-expressed with RalGAPα1(GAP) in insect cells (Toxoplasma gondii, UniProt A0A140H546 173-443).
T1 construct: MAF1b of Toxoplasma gondii, structured C-terminal domain, residues 173-443; The results speak of nickel purification of MAF1b, the methods of streptactin purification and TEV cleavage of RalGAP (±MAF1b)
T1 sequence: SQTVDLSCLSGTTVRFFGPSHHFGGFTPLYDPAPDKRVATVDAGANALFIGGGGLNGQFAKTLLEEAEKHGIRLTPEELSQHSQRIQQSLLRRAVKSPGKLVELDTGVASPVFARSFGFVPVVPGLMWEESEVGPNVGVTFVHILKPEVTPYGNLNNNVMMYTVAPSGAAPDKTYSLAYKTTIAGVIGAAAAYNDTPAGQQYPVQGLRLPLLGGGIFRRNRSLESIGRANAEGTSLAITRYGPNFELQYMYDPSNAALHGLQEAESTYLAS
The experiment in a line: SEC; RalGAPα1(GAP) co-expressed with MAF1b_WT in T. ni cells, co-purified by affinity chromatography, TEV cleavage, then Superdex 75 16/600 in 20 mM HEPES pH 7.5, 150 mM NaCl, 1 mM DTT; fractions on SDS-PAGE. The conditions noted are these: both partners purified.

B1: GAP domain of human Ral GTPase Accelerating Protein α1 (residues 1807-1988) (domain or fragment)
chain: not shown
notes: Human RalGAPα1, putative GAP domain, amino acids T1807-P1988 of NP_055805.1; also called RalGAPα1(GAP); RalGAP; not shown: twin-strep-II, N-terminal, cleaved
Take B1: the binding result is “binds”.
